test: melting temperature; UV melt of duplexes; settings: sodium 0.07 M; strand 2 µM

Which Tm does the source give for “CAGTGGGCTCCTGGGCGTGCTGGTC+GACCAGCACGCCCAGGAGCCCACTG (((((((((((((((((((((((((+)))))))))))))))))))))))))” here?
Its Tm is 72 °C.

same assay, conditions: sodium 0.12 M; strand 2 µM

With “CAGTGGGCTCCTGGGCGTGCTGGTC+GACCAGCACGCCCAGGAGCCCACTG (((((((((((((((((((((((((+)))))))))))))))))))))))))” as the substance, how does the Tm read?
Its Tm is 75.6 °C.

same assay, conditions: sodium 0.22 M; strand 2 µM

With “CAGTGGGCTCCTGGGCGTGCTGGTC+GACCAGCACGCCCAGGAGCCCACTG (((((((((((((((((((((((((+)))))))))))))))))))))))))” as the substance, how does the Tm read?
Its Tm is 79.2 °C.

same assay, conditions: sodium 0.62 M; strand 2 µM

With “CAGTGGGCTCCTGGGCGTGCTGGTC+GACCAGCACGCCCAGGAGCCCACTG (((((((((((((((((((((((((+)))))))))))))))))))))))))” as the substance, how does the Tm read?
Its Tm is 82.6 °C.

same assay, conditions: sodium 1.02 M; strand 2 µM

With “CAGTGGGCTCCTGGGCGTGCTGGTC+GACCAGCACGCCCAGGAGCCCACTG (((((((((((((((((((((((((+)))))))))))))))))))))))))” as the substance, how does the Tm read?
The Tm was 83.4 °C.

test: melting temperature; melt of duplexes; settings: sodium 0.0675 M; strand 1 µM

Which Tm does the source give for “CGACGTGCAAAATGTGCTG+CAGCACATAGTGCACGTCG (((((((((..((((((((+))))))))..)))))))))” here?
The Tm was 47 °C.

With “CGACGTGCGAGATGTGCTG+CAGCACATCGCGCACGTCG (((((((((.(((((((((+))))))))).)))))))))” as the substance, how does the Tm read?
The Tm was 62.5 °C.

For “CGACGTGCCTAATGTGCTG+CAGCACATTATGCACGTCG ((((((((.((((((((((+)))))))))).))))))))”, which Tm is on record?
Its Tm is 54 °C.

With “CGACGTGCTCTATGTGCTG+CAGCACATGACGCACGTCG ((((((((...((((((((+))))))))...))))))))” as the substance, how does the Tm read?
The Tm was 47 °C.

With “CGACGTGCCAGATGTGCTG+CAGCACATATGGCACGTCG ((((((((((.((((((((+)))))))).))))))))))” as the substance, how does the Tm read?
Its Tm is 59.9 °C.

Which Tm does the source give for “CGACGTGCCGCATGTGCTG+CAGCACATTGAGCACGTCG ((((((((...((((((((+))))))))...))))))))” here?
Its Tm is 49.5 °C.

With “CGACGTGCATGATGTGCTG+CAGCACATGAGGCACGTCG ((((((((.(.((((((((+)))))))).).))))))))” as the substance, how does the Tm read?
Its Tm is 52.6 °C.

With “CGACGTGCGGCATGTGCTG+CAGCACATCCCGCACGTCG ((((((((((.((((((((+)))))))).))))))))))” as the substance, how does the Tm read?
The Tm was 58.3 °C.

Which Tm does the source give for “CGACGTGCGGGATGTGCTG+CAGCACATAGTGCACGTCG ((((((((...((((((((+))))))))...))))))))” here?
The Tm was 47.9 °C.

For “CGACGTGCGGTATGTGCTG+CAGCACATCGAGCACGTCG ((((((((...((((((((+))))))))...))))))))”, which Tm is on record?
The Tm was 54 °C.

For “CGACGTGCCGCATGTGCTG+CAGCACATCTTGCACGTCG ((((((((...((((((((+))))))))...))))))))”, which Tm is on record?
The Tm was 47.4 °C.

For “CGACGTGCCATATGTGCTG+CAGCACATGTGGCACGTCG ((((((((((.((((((((+)))))))).))))))))))”, which Tm is on record?
Its Tm is 60.3 °C.

With “CGACGTGCAGTATGTGCTG+CAGCACATGACGCACGTCG ((((((((...((((((((+))))))))...))))))))” as the substance, how does the Tm read?
The Tm was 49.1 °C.

For “CGACGTGCATAATGTGCTG+CAGCACATTTAGCACGTCG ((((((((..(((((((((+)))))))))..))))))))”, which Tm is on record?
The Tm was 53.2 °C.

For “CGACGTGCTCAATGTGCTG+CAGCACATTCGGCACGTCG ((((((((..(((((((((+)))))))))..))))))))”, which Tm is on record?
Its Tm is 51.2 °C.

Which Tm does the source give for “CGACGTGCAATATGTGCTG+CAGCACATTCTGCACGTCG (((((((((..((((((((+))))))))..)))))))))” here?
The Tm was 50.7 °C.

Which Tm does the source give for “CGACGTGCTGGATGTGCTG+CAGCACATTAAGCACGTCG (((((((((..((((((((+))))))))..)))))))))” here?
Its Tm is 54.8 °C.

For “CGACGTGCATCATGTGCTG+CAGCACATTCCGCACGTCG ((((((((...((((((((+))))))))...))))))))”, which Tm is on record?
Its Tm is 46.6 °C.

For “CGACGTGCGAGATGTGCTG+CAGCACATCAAGCACGTCG ((((((((..(((((((((+)))))))))..))))))))”, which Tm is on record?
The Tm was 58.6 °C.

With “CGACGTGCGTCATGTGCTG+CAGCACATGCGGCACGTCG ((((((((..(((((((((+)))))))))..))))))))” as the substance, how does the Tm read?
Its Tm is 54.4 °C.

Which Tm does the source give for “CGACGTGCTAAATGTGCTG+CAGCACATCAGGCACGTCG ((((((((...((((((((+))))))))...))))))))” here?
The Tm was 50.9 °C.

Which Tm does the source give for “CGACGTGCGCTATGTGCTG+CAGCACATTTTGCACGTCG ((((((((...((((((((+))))))))...))))))))” here?
The Tm was 48.3 °C.

Which Tm does the source give for “CGACGTGCCTCATGTGCTG+CAGCACATTTCGCACGTCG ((((((((...((((((((+))))))))...))))))))” here?
The Tm was 46.5 °C.

With “CGACGTGCCAAATGTGCTG+CAGCACATAACGCACGTCG ((((((((...((((((((+))))))))...))))))))” as the substance, how does the Tm read?
Its Tm is 47.7 °C.

With “CGACGTGCAAAATGTGCTG+CAGCACATATTGCACGTCG ((((((((((.((((((((+)))))))).))))))))))” as the substance, how does the Tm read?
The Tm was 54.7 °C.

With “CGACGTGCTCCATGTGCTG+CAGCACATTATGCACGTCG ((((((((...((((((((+))))))))...))))))))” as the substance, how does the Tm read?
Its Tm is 47.6 °C.

For “CGACGTGCAATATGTGCTG+CAGCACATCAAGCACGTCG ((((((((...((((((((+))))))))...))))))))”, which Tm is on record?
Its Tm is 48 °C.

With “CGACGTGCATCATGTGCTG+CAGCACATCGTGCACGTCG (((((((((..((((((((+))))))))..)))))))))” as the substance, how does the Tm read?
Its Tm is 47.2 °C.

Which Tm does the source give for “CGACGTGCTCGATGTGCTG+CAGCACATGCAGCACGTCG (((((((((..((((((((+))))))))..)))))))))” here?
The Tm was 52.1 °C.

For “CGACGTGCCGAATGTGCTG+CAGCACATGGGGCACGTCG (((((((((..((((((((+))))))))..)))))))))”, which Tm is on record?
Its Tm is 56.8 °C.

With “CGACGTGCCGGATGTGCTG+CAGCACATTTAGCACGTCG ((((((((...((((((((+))))))))...))))))))” as the substance, how does the Tm read?
The Tm was 49.4 °C.

For “CGACGTGCTGAATGTGCTG+CAGCACATTCAGCACGTCG (((((((((((((((((((+)))))))))))))))))))”, which Tm is on record?
The Tm was 64.4 °C.

For “CGACGTGCTAAATGTGCTG+CAGCACATGACGCACGTCG ((((((((...((((((((+))))))))...))))))))”, which Tm is on record?
The Tm was 50.2 °C.

Which Tm does the source give for “CGACGTGCTCTATGTGCTG+CAGCACATTCGGCACGTCG ((((((((...((((((((+))))))))...))))))))” here?
The Tm was 48.7 °C.

With “CGACGTGCGCCATGTGCTG+CAGCACATGATGCACGTCG ((((((((..(((((((((+)))))))))..))))))))” as the substance, how does the Tm read?
The Tm was 54.9 °C.

Which Tm does the source give for “CGACGTGCCTTATGTGCTG+CAGCACATAATGCACGTCG ((((((((.((((((((((+)))))))))).))))))))” here?
The Tm was 53.7 °C.

Which Tm does the source give for “CGACGTGCCTAATGTGCTG+CAGCACATGACGCACGTCG ((((((((.(.((((((((+)))))))).).))))))))” here?
Its Tm is 46.4 °C.

With “CGACGTGCTAGATGTGCTG+CAGCACATGCTGCACGTCG ((((((((...((((((((+))))))))...))))))))” as the substance, how does the Tm read?
The Tm was 49.3 °C.

With “CGACGTGCATCATGTGCTG+CAGCACATATCGCACGTCG ((((((((...((((((((+))))))))...))))))))” as the substance, how does the Tm read?
The Tm was 47.4 °C.

Which Tm does the source give for “CGACGTGCTAAATGTGCTG+CAGCACATAGAGCACGTCG (((((((((..((((((((+))))))))..)))))))))” here?
The Tm was 52.9 °C.

Which Tm does the source give for “CGACGTGCGCGATGTGCTG+CAGCACATCTTGCACGTCG ((((((((..(((((((((+)))))))))..))))))))” here?
The Tm was 53.9 °C.

With “CGACGTGCTGCATGTGCTG+CAGCACATCGAGCACGTCG (((((((((..((((((((+))))))))..)))))))))” as the substance, how does the Tm read?
The Tm was 52.5 °C.

With “CGACGTGCTGTATGTGCTG+CAGCACATGTGGCACGTCG ((((((((...((((((((+))))))))...))))))))” as the substance, how does the Tm read?
The Tm was 51 °C.

With “CGACGTGCTTGATGTGCTG+CAGCACATACCGCACGTCG ((((((((...((((((((+))))))))...))))))))” as the substance, how does the Tm read?
Its Tm is 48.4 °C.

For “CGACGTGCCAGATGTGCTG+CAGCACATGTCGCACGTCG ((((((((.(.((((((((+)))))))).).))))))))”, which Tm is on record?
Its Tm is 49.7 °C.

Which Tm does the source give for “CGACGTGCCATATGTGCTG+CAGCACATCTCGCACGTCG ((((((((.(.((((((((+)))))))).).))))))))” here?
The Tm was 47.7 °C.

With “CGACGTGCATTATGTGCTG+CAGCACATAGCGCACGTCG ((((((((..(((((((((+)))))))))..))))))))” as the substance, how does the Tm read?
The Tm was 49.4 °C.

For “CGACGTGCACTATGTGCTG+CAGCACATTTAGCACGTCG ((((((((...((((((((+))))))))...))))))))”, which Tm is on record?
The Tm was 42.7 °C.

For “CGACGTGCGGGATGTGCTG+CAGCACATGCTGCACGTCG ((((((((.(.((((((((+)))))))).).))))))))”, which Tm is on record?
Its Tm is 56.9 °C.

Source: the array DNA melting data of Ke et al.
